Test results from article PMC10403576, “The Ycf48 accessory factor occupies the site of the oxygen-evolving manganese cluster during photosystem II biogenesis” (Nature Communications, 2023).

T1: PsaI subunit of PSI (Synechocystis sp. PCC 6803, UniProt Q55330 1-40)
T1 construct: PsaI of Synechocystis sp; PCC 6803; source: endogenous, Synechocystis sp; PCC 6803 strain His-D2/ΔCP47; co-purified with His-tagged D2 (Ni-NTA, sucrose gradient)
T1 chain (looked up): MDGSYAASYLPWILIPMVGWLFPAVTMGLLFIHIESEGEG


Columns and labels:
PsaB RC subunit of PSI = biological target: T2, PsaB RC subunit of PSI (Synechocystis sp. PCC 6803, UniProt P29255 1-731); test: cryo-EM structure; RCII/PSI complex co-purified from Synechocystis via His-tagged D2; 0.1% FOM; two classes at 3.2 Å and 3.1 Å, PSI-focused map at 2.9 Å; conditions: both partners purified
T2 construct: PsaB of Synechocystis sp; PCC 6803; source: endogenous, Synechocystis sp; PCC 6803 strain His-D2/ΔCP47; co-purified with His-tagged D2 (Ni-NTA, sucrose gradient)

PsaI subunit of PSI = biological target: T1, PsaI subunit of PSI; test: as above; conditions: both partners purified

T2 sequence (P29255 whole entry): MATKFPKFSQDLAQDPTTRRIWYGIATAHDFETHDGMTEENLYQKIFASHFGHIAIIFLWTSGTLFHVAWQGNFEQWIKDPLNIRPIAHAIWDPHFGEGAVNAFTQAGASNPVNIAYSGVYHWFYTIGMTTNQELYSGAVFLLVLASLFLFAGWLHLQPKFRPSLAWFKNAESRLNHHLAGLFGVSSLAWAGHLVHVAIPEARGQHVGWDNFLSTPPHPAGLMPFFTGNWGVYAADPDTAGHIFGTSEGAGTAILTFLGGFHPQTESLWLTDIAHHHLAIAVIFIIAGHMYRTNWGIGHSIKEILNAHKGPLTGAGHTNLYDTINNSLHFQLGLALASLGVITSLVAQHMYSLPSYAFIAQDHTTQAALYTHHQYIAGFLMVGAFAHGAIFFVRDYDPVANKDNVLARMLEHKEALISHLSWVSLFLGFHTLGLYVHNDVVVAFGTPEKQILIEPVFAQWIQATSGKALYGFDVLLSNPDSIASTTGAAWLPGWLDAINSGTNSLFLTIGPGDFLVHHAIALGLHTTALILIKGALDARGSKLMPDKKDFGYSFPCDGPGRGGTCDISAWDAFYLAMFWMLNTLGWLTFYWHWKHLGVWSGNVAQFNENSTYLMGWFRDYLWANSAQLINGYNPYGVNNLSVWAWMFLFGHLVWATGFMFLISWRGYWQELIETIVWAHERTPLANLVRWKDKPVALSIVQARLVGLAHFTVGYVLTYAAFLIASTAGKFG

binding result (PsaB RC subunit of PSI) | binding result (PsaI subunit of PSI) | Binder
binds |  | PsbI subunit of PSII (natural protein, PsbI of Synechocystis sp; PCC 6803; source: endogenous, Synechocystis sp; PCC 6803 strain His-D2/ΔCP47; co-purified with His-tagged D2 (Ni-NTA, sucrose gradient)) not shown
 | binds | PsbF, beta subunit of Cyt b-559 (natural protein, PsbF (cytochrome b-559 beta subunit) of Synechocystis sp; PCC 6803; source: endogenous, Synechocystis sp; PCC 6803 strain His-D2/ΔCP47; co-purified with His-tagged D2 (Ni-NTA, sucrose gradient)) not shown
